# Results from PMC2836968 (Molecular Biology of the Cell, 2010).
# Target: human Hsp90β (human, UniProt P08238 1-724)
# Test: SPR
# Chain of human Hsp90β (P08238 whole entry): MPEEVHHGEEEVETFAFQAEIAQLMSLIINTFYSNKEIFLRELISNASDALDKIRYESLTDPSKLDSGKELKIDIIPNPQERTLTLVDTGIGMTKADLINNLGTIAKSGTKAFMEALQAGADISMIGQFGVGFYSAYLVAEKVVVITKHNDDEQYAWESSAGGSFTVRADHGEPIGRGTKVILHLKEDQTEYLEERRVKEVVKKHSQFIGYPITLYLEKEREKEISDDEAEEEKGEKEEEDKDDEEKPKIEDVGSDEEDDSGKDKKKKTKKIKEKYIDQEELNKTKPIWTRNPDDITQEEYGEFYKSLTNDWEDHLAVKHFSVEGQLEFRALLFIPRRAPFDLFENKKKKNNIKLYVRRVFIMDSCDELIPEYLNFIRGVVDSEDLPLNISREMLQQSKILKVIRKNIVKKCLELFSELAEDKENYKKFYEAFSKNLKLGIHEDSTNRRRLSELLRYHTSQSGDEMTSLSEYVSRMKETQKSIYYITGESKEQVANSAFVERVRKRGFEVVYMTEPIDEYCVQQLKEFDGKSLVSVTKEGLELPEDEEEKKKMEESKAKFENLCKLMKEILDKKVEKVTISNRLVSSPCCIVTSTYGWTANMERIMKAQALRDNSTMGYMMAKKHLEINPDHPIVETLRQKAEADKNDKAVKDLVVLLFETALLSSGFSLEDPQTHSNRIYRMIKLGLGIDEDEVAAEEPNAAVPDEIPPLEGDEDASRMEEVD
row,Binder,Kd
1,Aha1 N-terminal domain (amino acids 1-162) (domain or fragment) MAKWGEGDPRWIVEERADATNVNNWHWTERDASNWSTDKLKTLFLAVQVQNEEGKCEVTEVSKLDGEASINNRKGKLIFFYEWSVKLNWTGTSKSGVQYKGHVEIPNLSDENSVDEVEISVSLAKDEPDTNLVALMKEEGVKLLREAMGIYISTLKTEFTQG,2.5 µM
2,"Aha1 C-terminal domain (amino acids 163-338, with the linker region 163-200) (domain or fragment) MILPTMNGESVDPVGQPALKTEERKAKPAPSKTQARPVGVKIPTCKITLKETFLTSPEELYRVFTTQELVQAFTHAPATLEADRGGKFHMVDGNVSGEFTDLVPEKHIVMKWRFKSWPEGHFATITLTFIDKNGETELCMEGRGIPAPEEERTRQGWQRYYFEGIKQTFGYGARLF",3.8 µM
